One molecule from paper PMC3762362 can be followed below.

The target of this assay is Endogenous bovine Arp2/3 complex, A7MB62;P61157. Briefly: fluorescence anisotropy competition assay. Conditions: chain shown with the change; reporter 20 nM VVCA-A462C-AF594; mixture incubated for 10 min prior to measurement; parent: est. 6.0 nM; read off a plot. (Fluorescence polarisation rises when a labelled molecule tumbles more slowly, as on binding a larger partner.)

B1: GST-VCA (GST fusion of N-WASP residues 432–505), O00401 I467A (protein)
chain: SGRDALLDQIRQGIQLKSVADGQESTPPTPAPTSGAVGALMEVMQKRSKAIHSSDEDEDEDDEEDFEDDDEWED
With B1, the Kd was 20 nM.

Usually Kd stands for the concentration at which binding is half-saturated.
